Experimental data: US9074002B2, “PTP1B inhibitors” (Cold Spring Harbor Laboratory, priority 2009, dated 2015)

T1: PTP1B under reducing condition (Homo sapiens, UniProt P18031)
T1 construct: made in house; host or cells: E. coli BL21 (pET19b)
T1 sequence (P18031 3-277 limits assumed): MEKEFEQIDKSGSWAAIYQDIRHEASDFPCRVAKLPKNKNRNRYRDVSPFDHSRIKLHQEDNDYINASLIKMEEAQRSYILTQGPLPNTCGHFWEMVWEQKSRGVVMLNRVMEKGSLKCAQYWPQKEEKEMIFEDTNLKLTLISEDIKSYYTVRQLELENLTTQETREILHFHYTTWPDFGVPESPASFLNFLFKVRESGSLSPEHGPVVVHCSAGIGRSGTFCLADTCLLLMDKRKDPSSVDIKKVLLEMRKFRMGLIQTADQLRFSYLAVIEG

T2: endogenous PTP1B-OX (Homo sapiens, UniProt P18031)
T2 construct: endogenous in cells; host or cells: 293T cells (transfected only with the scFv intrabody)
T2 sequence (P18031 1-435): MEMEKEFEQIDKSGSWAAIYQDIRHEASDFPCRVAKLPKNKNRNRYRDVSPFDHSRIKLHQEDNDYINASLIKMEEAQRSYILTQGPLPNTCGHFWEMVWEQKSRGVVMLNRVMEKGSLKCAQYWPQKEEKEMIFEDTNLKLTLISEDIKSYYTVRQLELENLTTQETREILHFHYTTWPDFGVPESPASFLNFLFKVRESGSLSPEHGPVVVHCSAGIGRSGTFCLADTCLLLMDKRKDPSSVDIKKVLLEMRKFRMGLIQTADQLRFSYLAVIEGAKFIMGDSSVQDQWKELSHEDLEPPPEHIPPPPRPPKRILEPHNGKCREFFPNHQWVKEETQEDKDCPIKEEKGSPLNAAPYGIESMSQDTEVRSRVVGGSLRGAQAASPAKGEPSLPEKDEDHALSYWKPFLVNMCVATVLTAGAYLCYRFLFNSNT

T3: PTP1B-OX (Homo sapiens, UniProt P18031)
T3 construct: made in house; host or cells: E. coli BL21 (pET19b)
T3 sequence (P18031 3-277): T1 sequence (P18031 3-277 limits assumed)

B1: scFv21: scFv, SEQ ID NO: 54 (protein)
scFv: MKKTAIAIAVALAGFATVAQAALTQPSSVSANPGGTVKITCSGSSGSYYGWYQQKSPGSAPVTVIYDNDKRPSDVPSRFSGSKSGPTATLTITGVQAEDEAVYFCGSRDNSYVGIFGAGTTLTVLGQSSRSSAVTLDESGGGLQTPGGALSLVCKASGFTFSSYDMFWVRQAPGKGLEFVAQINSAGSYTNYGSAVKGRATISRDDGQSTVRLQLNNLRAEDTGIYFCAKSASGYYYSGSDAGDIDAWGHGTEVIVSSTSGQAGQHHHHHHGAYPYDVPDYAS
B2: scFv24: scFv, SEQ ID NO: 57 (protein)
scFv: MKKTAIAIAVALAGFATVAQAAVSASPGDTVKITCSGGNSSYGYGWYQQKSPGSAPVSVIYYNDERPSDIPSRFSGSASGSTATLTITGVQADDEAVYYCGNADSSTYAGIFGAGTTLTVLGQSSRSSAVTLDESGGGLQTPGGGLSLVCKASGFDFSTNAMGWVRQAPGKGLEWVAGISGSGSSTWYATAVKGRATISRDNGQSTVRLQLNNLRAEDTGTYYCTKYVGDYYWYIDAGSIDAWGHGTEVIVSSTSGQAGQHHHHHHGAYPYDVPDYAS
B3: scFv28: scFv, truncated sequence, SEQ ID NO: 61 (protein)
scFv: MKKTAIAIAVALAGFATVAQAAVIYSNDERPSDIPSRFSGSTSGSTSTLTITGVQADDEAVYFCGSADSSTYAGIFGAGTTLTVLGQSSRSSAVTLDESGGGLQTPGGALSLVCKASGFTFSSFNMFWVRQAPGRGLEFVAGITSSGGSTYYGTAVKGRATISRDNGQSTVRMQLNNLRAEDTGTYFCARGAYDYYFYWNYAGTIDAWGHGTEVIVSSTSGQAGQHHHHHHGAYPYDVPDYAS
B4: scFv105: scFv, SEQ ID NO: 132 (protein)
scFv: MKKTAIAIAVALAGFATVAQAALTQPSSVSANPGEAVKITCSGSSGSYGWYQQKSPGSAPVTVIYYNDKRPSDIPSRFSGSTSGSTSTLTITGVQAEDEAVYFCGGYDSNYLGIFGAGTTLTVLGQSSRSSAVTLDESGGGLQTPRGALSLVCKASGFTFSSYSMAWVRQAPGKGLEFVAGIQNDGSITDYGSAVDGRATISRDDGQSTVRLQLNNLRTEDTATYYCAKTTVADGVIGAYGIDAWGHGTEVIVSSTSGQAGQHHHHHHGAYPYDVPDYAS
B5: scFv118: scFv, SEQ ID NO: 142 and 166 (protein)
scFv: MKKTAIAIAVALAGFATVAQAALTQPSSVSANLGGTVEITCSGGSGSYGWYQQKSPGGAPVTVIYYNDKRPSDIPSRFSGSKSGSTATLTITGVQVEDEAVYYCGSYDSSYVGIFGVGTTLTVLGQSSRSSAVTLDESGGGLQTPRGALSLVCKASGFTFSSYSMAWVRQAPGKGLEFVAGIQNDGSITDYGSAVDGRATISRDDGQSTVRLQLNNLRTEDTATYYCAKTTVADGVIGAYGIDAWGHGTEVIVSSTSGQAGQHHHHHHGAYPYDVPDYAS
B6: scFv61: scFv, SEQ ID NO: 94 and 164 (protein)
scFv: MKKTAIAIAVALAGFATVAQAALTQPSSVSANPGETVKITCSGGGSYAGSYYYGWYQQKAPGSAPVTLIYDNTNRPSNIPSRFSGSLSGSTGTLTITGVRAEDEAVYYCGSFDSSTDGGYAAIFGAGTTLTVLGQSSRSSAVTLDESGGGLQTPGGGLSLVCKASEFTFSSYAMEWVRQAPGKGLEWVAYINSDGSSTWYAPAVKGRATISRDNGQSTVRLQLNSLRAEDTATYYCTRGSGGENIDTWGHGTEVIVSSTSGQAGQHHHHHHGAYPYDVPDYAS
B7: scFv62: scFv, SEQ ID NO: 95 and 165 (protein)
scFv: MKKTAIAIAVALAGFATVAQAALTQPSSVSANPGGTVKITCSGSSSAYGYGWYQQKSPGSAPVTVIYNNNKRPSNIPSRFSGSKSGSTGTLTITGVQAEDEAVYFCGSEDSSTDAIFGAGTTLTVLGQSSRSSAVTLDESGGGLQTPGGALSLVCKASGFTFSSYDMGWVRQAPGKGLEYVAGITNDGRYASYGSAVDGRATISRDNGQSTVRLQLNNLRAEDTGTYYCARDDGSGWTGNTIDTWGHGTEVIVSSTSGQAGQHHHHHHGAYPYDVPDYAS

target: T1, PTP1B under reducing condition; assay: In vitro binding assay, purified recombinant PTP1B (37 kDa) and purified scFv, Ni-NTA pull down, reducing condition; conditions: with 2 mM TCEP; FIG. 9
Experimental: (§1) They established conditions in which PTP1B is reversibly oxidized by H2O2 in solution (FIG. 8). An artificial protein substrate RCML, in which tyrosine was phosphorylated with ^32P using recombinant GST-FER kinase was used in this assay to measure the phosphatase activity. Recombinant PTP (37 kDa) was incubated with increasing concentration (50 μM to 100 mM) of H2O2. A quick buffer exchange was done to remove the H2O2 and reducing agent (TCEP) was added to reactivate the enzyme.
(§2) In the in vitro binding assay, purified PTP was reversibly oxidized with […] followed by a quick buffer exchange to remove H2O2 (FIG. 8). Purified scFv was incubated in molar excess with PTP1B-OX or with PTP under reducing condition (with 2 mM TCEP) in binding buffer (20 mM HEPES, pH 7.4, 300 mM NaCl, 0.05% BSA, 0.05% Tween-20 and 10 mM imidazole) for 2 hours at 4° C. Ni-NTA agarose was added and incubated for one hour at 4° C. Protein complex bound to Ni-NTA agarose beads was pulled down and washed (three times, 5 minutes each, at 4° C.) with binding buffer containing 20 mM imidazole to reduce non-specific binding to the beads. The protein complex was eluted from the Ni-NTA agarose beads with 500 mM imidazole (in binding buffer, pH 7.4) for 15 minutes at 4° C. with gentle shaking. The complex was separated by SDS-PAGE and PTP1B was detected with anti-PTP1B antibody (FG6) and scFv was detected with anti-HA antibody [anti-HA (3F10)-HRP, Roche] by immunoblotting. Eight different scFvs (scFvs 20, 21, 24, 28, 45, 48, 57, and 105), expressed and purified from bacterial cultures were tested by this in vitro binding experiment.

Molecule | binding to PTP1B under reducing condition in vitro
B1 | no significant binding
B2 | no significant binding
B3 | no significant binding
B4 | no significant binding

target: T2, endogenous PTP1B-OX; assay: Intrabody interaction in 293T cells treated with H2O2 (Ni-NTA pull down / anti-PTP1B immunoprecipitation); format: cell-based; conditions: 1 mM H2O2 5 minutes, FIGS. 11, 12
Experimental: One of the positive candidate scFvs (scFv45) was cloned in pcDNA3.2/V5-GW/D-TOPO expression vector and transiently expressed in mammalian cells as stable intracellular antibody (aka intrabody) (FIG. 10). To detect PTP1B-OX and scFv45 interaction in mammalian cells, scFv45 was overexpressed in 293T cells as described herein (See Example 4) and 48 hours post transfection the cells were serum-starved for 16 hours in growth medium (DMEM, low glucose) without serum (FBS), then incubated with 1 mM H2O2 (in growth medium without serum) for 5 minutes at 37° C. or treated with 20 mM NAC (in growth medium without serum) for 1 hour at 37° C. Cells treated with H2O2 were washed twice with cold (4° C.) PBS and lysed in lysis buffer (25 mM HEPES, pH 7.4, 150 mM NaCl, 0.25% Deoxychloate, 1% TritonX-100, 25 mM NaF, 10 mM MgCl2, 1 mM EDTA, 10% Glycerol, 0.5 mM PMSF, 10 mM Benzamidine, protease inhibitor cocktail). Cells treated with NAC were lysed with lysis buffer containing 2 mM TCEP to ensure a post-lysis reducing environment. Interaction between PTP1B and intrabody45 were tested by pulling down the protein complex from 1 mg of total cell lysate with Ni-NTA agarose or by immunoprecipitating PTP with anti-PTP1B (FG6). For the pull down experiment, Ni-NTA agarose beads were incubated with the lysates (both oxidized and reduced) at 4° C. Protein complex bound to the Ni-NTA agarose beads was pulled down and washed three times; first with lysis buffer containing 20 mM imidazole followed by two more washes with wash buffer (PBS, pH 7.4, 20 mM imidazole, 0.05% BSA, 0.05% Tween-20 and protease inhibitors). Applicant used 20 mM imidazole in the wash buffer to reduce the non-specific binding of proteins with the Ni-NTA agarose beads. The complex was eluted with wash buffer containing 500 mM imidazole with gentle shaking at 4° C. and the eluate was mixed with SDS sample buffer with DTT. For the immunoprecipitation experiments, 1 mg of total cell lystates (both oxidized and reduced) was incubated with anti-PTP1B antibody (FG6) at 4° C. The interacting protein complex was immunoprecipitated after incubating the lysate-antibody mixture with protein A/G Sepharose at 4° C. After immunoprecipitation, Sepharose beads were washed three times; first with lysis buffer followed by two more washes with wash buffer (PBS, pH 7.4, 0.05% BSA, 0.05% Tween-20 and protease inhibitors). The Sepharose beads were then heated at 90° C. in 2×SDS sample buffer with DTT. Proteins from the pulled down or immunoprecipitated complex were separated by SDS-PAGE. PTP was detected with anti-PTP1B antibody (FG6) and the intrabodies were detected with anti-HA (3F10)-HRP antibody [anti-HA (3F10)-HRP, Roche] by immunoblotting.
In the initial in vitro phosphatase screening assay using reversibly oxidized (with H2O2) recombinant PTP1B, Applicant found four different PTP1B-OX specific scFvs (scFv45, scFv57, scFv64 and scFv106) from the initial pool of 12 different scFvs. […] Applicant has also shown that scFv45, expressed as an intrabody in mammalian cells, can bind to endogenous PTP1B-OX but not endogenous PTP under reducing conditions. Further assessment was carried out to identify additional PTP1B-OX-specific intrabodies. Additional scFvs have been subcloned in pcDNA3.2/V5-GW/D-TOPO mammalian expression vector (FIG. 10) from their respective phagemid constructs. After transient overexpression of these scFvs as intrabodies in 293T cells, the interaction between endogenous PTP1B and these intrabodies in both H2O2-treated cells and cells was observed under reducing condition (treated with NAC and lysed with lysis buffer containing TCEP). […] All can be used in the methods and compositions described herein. Additional scFvs, such as some or all of the 137 selected individual scFvs from the library, can be similarly tested by in vitro screening and/or by binding assay in mammalian cells.

Molecule | binding of intrabody to endogenous PTP1B-OX
B5 | bound weakly to PTP1B-OX
B6 | bound weakly to PTP1B-OX
B7 | bound weakly to PTP1B-OX

target: T3, PTP1B-OX; assay: In vitro binding assay, purified recombinant PTP1B (37 kDa) and purified scFv, Ni-NTA pull down; conditions: purified proteins, scFv in molar excess, 2 hours at 4° C.; FIG. 9
Experimental: as §1, §2

Molecule | binding to PTP1B-OX in vitro
B1 | no significant binding
B2 | no significant binding
B3 | no significant binding
B4 | no significant binding
